Data from IntAct's records for PubMed 33513601.

Biological target: un13d_human UNC13D (UniProt Q70J99)
Sequence (Q70J99 whole entry): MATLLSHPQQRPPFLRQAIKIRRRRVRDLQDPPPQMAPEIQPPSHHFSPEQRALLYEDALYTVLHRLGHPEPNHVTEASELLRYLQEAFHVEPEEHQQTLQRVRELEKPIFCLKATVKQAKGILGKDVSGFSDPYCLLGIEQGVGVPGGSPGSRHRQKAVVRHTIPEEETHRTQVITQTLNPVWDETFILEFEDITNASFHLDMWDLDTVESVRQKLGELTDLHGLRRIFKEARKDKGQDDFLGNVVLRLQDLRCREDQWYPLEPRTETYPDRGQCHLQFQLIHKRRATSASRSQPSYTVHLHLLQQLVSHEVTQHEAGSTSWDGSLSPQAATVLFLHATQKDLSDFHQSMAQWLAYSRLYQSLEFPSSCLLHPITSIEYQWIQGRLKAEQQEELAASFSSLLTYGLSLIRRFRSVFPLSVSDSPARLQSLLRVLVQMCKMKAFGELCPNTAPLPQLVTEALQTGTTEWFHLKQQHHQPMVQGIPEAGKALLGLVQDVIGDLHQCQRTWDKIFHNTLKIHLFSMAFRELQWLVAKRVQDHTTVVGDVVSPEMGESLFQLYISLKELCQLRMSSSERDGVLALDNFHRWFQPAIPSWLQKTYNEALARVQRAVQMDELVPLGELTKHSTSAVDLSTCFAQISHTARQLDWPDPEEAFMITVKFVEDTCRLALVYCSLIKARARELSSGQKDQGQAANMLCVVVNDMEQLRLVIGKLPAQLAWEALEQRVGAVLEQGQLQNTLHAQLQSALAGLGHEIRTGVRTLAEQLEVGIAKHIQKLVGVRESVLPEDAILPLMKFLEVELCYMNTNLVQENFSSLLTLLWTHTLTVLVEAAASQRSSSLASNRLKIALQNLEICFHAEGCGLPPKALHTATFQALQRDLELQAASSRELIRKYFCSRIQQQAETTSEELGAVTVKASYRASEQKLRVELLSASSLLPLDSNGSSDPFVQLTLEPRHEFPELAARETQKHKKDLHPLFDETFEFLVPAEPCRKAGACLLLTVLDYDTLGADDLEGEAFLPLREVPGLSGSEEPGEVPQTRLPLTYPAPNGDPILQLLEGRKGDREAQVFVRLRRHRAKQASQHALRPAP

Sequence of Rho-related GTP-binding protein RhoG (Homo sapiens), P84095 Q61L (P84095 whole entry Q61L): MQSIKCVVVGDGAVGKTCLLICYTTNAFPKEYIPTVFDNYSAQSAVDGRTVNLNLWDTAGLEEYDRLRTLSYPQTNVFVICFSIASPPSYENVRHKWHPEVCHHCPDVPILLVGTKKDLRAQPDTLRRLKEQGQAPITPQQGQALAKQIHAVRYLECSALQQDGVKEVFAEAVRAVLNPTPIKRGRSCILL

Substance: Rho-related GTP-binding protein RhoG (Homo sapiens), P84095 Q61L
- effect of a mutation on the interaction: with no effect
